Results as given in paper PMC12675543 (Nature Communications, 2025).

Experiments:
Assay in all cases: SPR; biotinylated p62 constructs or His-MBP immobilised on streptavidin sensor chips (520-700 RU); VHHp62 injected in serial dilution; 50 mM Tris, 150 mM NaCl, 1 mM TCEP, 0.05% Tween-20, pH 7.4, 25 °C; kinetic 1:1 model
Details in all cases: both partners purified
p62(387-446)-Avi = target: T1, p62(387-446)-Avi (Homo sapiens, UniProt Q13501, biotinylated)
T1 construct: p62 (SQSTM1), human, UBA domain, printed as residues 387-446; SPR construct; also called p62UBA; p62 ubiquitin associated domain; source: E. coli BL21 (DE3), purified (IMAC, 3C cleavage, SEC); not shown: His-MBP, N-terminal, cleaved; Avi, C-terminal, kept

His-MBP-avi = target: T2, His-MBP-avi (Escherichia coli K12 (assumed), UniProt P0AEX9 = MBP, biotinylated)
T2 construct: Control surface protein in SPR; also called His-MBP tag; not shown: His, N-terminal, kept; Avi, C-terminal, kept

His-MBP-p62(85-440)-Avi = target: T3, His-MBP-p62(85-440)-Avi (Homo sapiens, UniProt Q13501, biotinylated)
T3 construct: also called immunogen; p62 lacking essential parts of the PB1 domain; source: recombinant; not shown: His, N-terminal, kept; MBP, N-terminal, kept; Avi, C-terminal, kept

p62(122-181)-Avi = target: T4, p62(122-181)-Avi (Homo sapiens, UniProt Q13501, biotinylated)
T4 construct: p62 (SQSTM1), human, ZZ domain, residues 122-181; also called p62ZZ; p62 ZZ domain; source: E. coli BL21 (DE3), purified (IMAC, 3C cleavage, SEC); not shown: His-MBP, N-terminal, cleaved; Avi, C-terminal, kept

B1: VHHp62-His (6C10) (VHH)
VHH: EVQLVESGGGLVQPGGSLRLSCVASGFTFSNYWMYWVRQAPGKGLEWVSTINTGSGAAYYTSSVKGRFTISRDNAKNTLYLQMNSLKSEDTAVYYCATDLRGAQRGQGTQVTVSS
notes: anti-p62 VHH from immunised llamas, phage display clone 6C10; the AlphaFold2 model of VHHp62 had 121 residues; also called VHH 6C10; p62 single-domain antibody; source: Pichia pastoris (Komagataella phaffii), secreted, purified (IMAC, desalting); not shown: His, C-terminal, kept
Kd (p62(387-446)-Avi): 36 nM | binding result (His-MBP-avi): no binding | Kd (His-MBP-p62(85-440)-Avi): 11 nM | binding result (p62(122-181)-Avi): no binding
